The record followed here is paper PMC9898758, “Analysis of a degron-containing reporter protein GFP-CL1 reveals a role for SUMO1 in cytosolic protein quality control” (The Journal of Biological Chemistry, 2022).

Where only a bound is given, the exact number is not on record here.

This experiment has as its target T1, MBP-Slx5 (UniProt P32828 1-619).
T1 construct: Plasmid was a gift from Dr Oliver Kerscher; also called MBP-tagged SLX5; source: E. coli Rosetta, purified (amylose resin)
T1 sequence (looked up): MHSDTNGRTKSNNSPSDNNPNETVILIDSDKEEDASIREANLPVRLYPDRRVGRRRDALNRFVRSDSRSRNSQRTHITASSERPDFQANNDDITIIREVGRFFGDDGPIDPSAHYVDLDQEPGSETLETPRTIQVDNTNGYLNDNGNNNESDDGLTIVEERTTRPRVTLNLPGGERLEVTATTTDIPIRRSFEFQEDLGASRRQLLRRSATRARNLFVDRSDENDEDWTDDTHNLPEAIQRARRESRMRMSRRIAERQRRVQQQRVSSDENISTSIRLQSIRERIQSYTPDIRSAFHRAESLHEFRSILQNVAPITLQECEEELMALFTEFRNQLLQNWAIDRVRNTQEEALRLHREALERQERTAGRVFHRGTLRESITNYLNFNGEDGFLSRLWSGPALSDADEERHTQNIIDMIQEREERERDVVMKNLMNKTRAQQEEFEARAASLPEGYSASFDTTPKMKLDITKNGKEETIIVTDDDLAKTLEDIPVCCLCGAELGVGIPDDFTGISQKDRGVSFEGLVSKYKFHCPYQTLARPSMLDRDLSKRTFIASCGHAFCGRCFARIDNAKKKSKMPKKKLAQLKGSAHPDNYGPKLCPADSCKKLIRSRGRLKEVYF
The experiment is described as follows: pull-down; MBP-Slx5 or MBP alone immobilised on amylose beads, incubated with purified GST, GST-Smt3 or GST-Smt3-K38/40A; washes, SDS-PAGE, immunoblot with anti-MBP and anti-GST. The note with it: both partners purified. On the technique in general: Immunoblotting shows a protein as a band on a membrane.

B1: GST-tagged Smt3-K38/40A mutant (natural protein, S. cerevisiae)
chain: EVKPEVKPETHINLKVSDGSSEIFFAIAKTTPLRRLMEAFAKRQGKEMDSLRFLYDGIRIQADQTPEDLDMEDNDIIEAHREQIGG
notes: Smt3 of S. cerevisiae with K38A and K40A; SMT3^K38/40A cloned into pGEX-6p-1; also called GST-SMT3^K38/40A; GST-Smt3-K30/40A; source: E. coli Rosetta, purified (Glutathione Sepharose 4B)
In the case of B1, the “fold reduction in binding against WT Smt3” value was over 5 fold.
